Assays:
PKA-RIα (Homo sapiens) = PKA-RIα (Homo sapiens) (UniProt P10644); test: fluorescence polarization; conditions: cited from earlier work
PKA-RIβ (Homo sapiens) = PKA-RIβ (Homo sapiens) (UniProt P31321); test: fluorescence polarization; conditions: cited from earlier work
smAKAP-wt-GFP (human) = smAKAP-wt-GFP (human) (UniProt Q9BSF0); test: FRET or BRET
Chain of smAKAP-wt-GFP (human) (Q9BSF0 whole entry): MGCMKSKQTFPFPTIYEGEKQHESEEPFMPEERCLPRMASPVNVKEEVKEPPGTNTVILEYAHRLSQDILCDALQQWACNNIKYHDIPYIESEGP

Chain of smAKAP (Q9BSF0 2-95): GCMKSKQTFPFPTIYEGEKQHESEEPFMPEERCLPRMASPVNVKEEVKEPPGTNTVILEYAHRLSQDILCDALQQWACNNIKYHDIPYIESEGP
Chain of PKA-RIα (Homo sapiens) (P10644 whole entry): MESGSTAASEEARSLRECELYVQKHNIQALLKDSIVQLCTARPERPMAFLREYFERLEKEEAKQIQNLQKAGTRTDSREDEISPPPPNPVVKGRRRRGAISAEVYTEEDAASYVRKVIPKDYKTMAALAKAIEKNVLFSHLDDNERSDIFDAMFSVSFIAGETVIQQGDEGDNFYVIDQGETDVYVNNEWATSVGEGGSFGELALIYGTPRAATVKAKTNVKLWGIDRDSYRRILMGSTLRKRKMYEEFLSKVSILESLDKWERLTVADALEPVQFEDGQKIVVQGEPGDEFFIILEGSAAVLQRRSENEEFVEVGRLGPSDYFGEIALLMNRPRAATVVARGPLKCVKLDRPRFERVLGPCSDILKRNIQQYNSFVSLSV

Row | Substance | Kd (PKA-RIα (Homo sapiens)) [nM] | Kd (PKA-RIβ (Homo sapiens)) [nM] | change of FRET signal after forskolin (smAKAP-wt-GFP (human)) [%]
1 | smAKAP (from UniProt Q9BSF0) | 6.7 | 6.9 | 
2 | PKA-RIβ-mKO2 (from UniProt P31321 1-381) (natural protein) |  |  | -2.3

— paper PMC4980077
